From patent publication US10555963B2, “Klotho protein and related compounds for the treatment and diagnosis of cancer” (TEL HASHOMER MEDICAL RESEARCH INFRASTRUCTURE AND SERVICES …, priority 2007, dated 2020)

B1: soluble klotho protein: V5-tagged entire extracellular domain of mouse Klotho protein (residues 31 to 982 of SEQ ID NO: 3) from Drosophila cells (protein)
chain: RCLSAEPGQGAQTWARFARAPAPEAAGLLHDTFPDGFLWAVGSAAYQTEGGWRQHGKGASIWDTFTHHSGAAPSDSPIVVAPSGAPSPPLSSTGDVASDSYNNVYRDTEGLRELGVTHYRFSISWARVLPNGTAGTPNREGLRYYRRLLERLRELGVQPVVTLYHWDLPQRLQDTYGGWANRALADHFRDYAELCFRHFGGQVKYWITIDNPYVVAWHGYATGRLAPGVRGSSRLGYLVAHNLLLAHAKVWHLYNTSFRPTQGGRVSIALSSHWINPRRMTDYNIRECQKSLDFVLGWFAKPIFIDGDYPESMKNNLSSLLPDFTESEKRLIRGTADFFALSFGPTLSFQLLDPNMKFRQLESPNLRQLLSWIDLEYNHPPIFIVENGWFVSGTTKRDDAKYMYYLKKFIMETLKAIRLDGVDVIGYTAWSLMDGFEWHRGYSIRRGLFYVDFLSQDKELLPKSSALFYQKLIEDNGFPPLPENQPLEGTFPCDFAWGVVDNYVQVDTTLSQFTDPNVYLWDVHHSKRLIKVDGVVAKKRKPYCVDFSAIRPQITLLREMRVTHFRFSLDWALILPLGNQTQVNHTVLHFYRCMISELVHANITPVVALWQPAAPHQGLPHALAKHGAWENPHTALAFADYANLCFKELGHWVNLWITMNEPNTRNMTYRAGHHLLRAHALAWHLYDDKFRAAQKGKISIALQADWIEPACPFSQNDKEVAERVLEFDIGWLAEPIFGSGDYPRVMRDWLNQKNNFLLPYFTEDEKKLVRGSFDFLAVSHYTTILVDWEKEDPMKYNDYLEVQEMTDITWLNSPSQVAVVPWGLRKVLNWLRFKYGDLPMYVTANGIDDDPHAEQDSLRIYYIKNYVNEALKAYVLDDINLCGYFAYSLSDRSAPKSGFYRYAANQFEPKPSMKHYRRIIDSNGFLGSGTLGRFCPEEYTVCTECGFFQTRK
modifications: V5 tag
B2: sol-hKL1: Human KL1 (residues 34-549 of SEQ ID: 2) obtained from PeproTech Inc. (protein)
chain: EPGDGAQTWARFSRPPAPEAAGLFQGTFPDGFLWAVGSAAYQTEGGWQQHGKGASIWDTFTHHPLAPPGDSRNASLPLGAPSPLQPATGDVASDSYNNVFRDTEALRELGVTHYRFSISWARVLPNGSAGVPNREGLRYYRRLLERLRELGVQPVVTLYHWDLPQRLQDAYGGWANRALADHFRDYAELCFRHFGGQVKYWITIDNPYVVAWHGYATGRLAPGIRGSPRLGYLVAHNLLLAHAKVWHLYNTSFRPTQGGQVSIALSSHWINPRRMTDHSIKECQKSLDFVLGWFAKPVFIDGDYPESMKNNLSSILPDFTESEKKFIKGTADFFALCFGPTLSFQLLDPHMKFRQLESPNLRQLLSWIDLEFNHPQIFIVENGWFVSGTTKRDDAKYMYYLKKFIMETLKAIKLDGVDVIGYTAWSLMDGFEWHRGYSIRRGLFYVDFLSQDKMLLPKSSALFYQKLIEKNGFPPLPENQPLEGTFPCDFAWGVVDNYIQVSQLTKPISSLTKPYH
B3: sol-hKL: Soluble human Klotho protein (hKL) obtained from R&D Systems (protein, UniProt Q9UEF7 34-981, looked up)
extracellular domain: EPGDGAQTWARFSRPPAPEAAGLFQGTFPDGFLWAVGSAAYQTEGGWQQHGKGASIWDTFTHHPLAPPGDSRNASLPLGAPSPLQPATGDVASDSYNNVFRDTEALRELGVTHYRFSISWARVLPNGSAGVPNREGLRYYRRLLERLRELGVQPVVTLYHWDLPQRLQDAYGGWANRALADHFRDYAELCFRHFGGQVKYWITIDNPYVVAWHGYATGRLAPGIRGSPRLGYLVAHNLLLAHAKVWHLYNTSFRPTQGGQVSIALSSHWINPRRMTDHSIKECQKSLDFVLGWFAKPVFIDGDYPESMKNNLSSILPDFTESEKKFIKGTADFFALCFGPTLSFQLLDPHMKFRQLESPNLRQLLSWIDLEFNHPQIFIVENGWFVSGTTKRDDAKYMYYLKKFIMETLKAIKLDGVDVIGYTAWSLMDGFEWHRGYSIRRGLFYVDFLSQDKMLLPKSSALFYQKLIEKNGFPPLPENQPLEGTFPCDFAWGVVDNYIQVDTTLSQFTDLNVYLWDVHHSKRLIKVDGVVTKKRKSYCVDFAAIQPQIALLQEMHVTHFRFSLDWALILPLGNQSQVNHTILQYYRCMASELVRVNITPVVALWQPMAPNQGLPRLLARQGAWENPYTALAFAEYARLCFQELGHHVKLWITMNEPYTRNMTYSAGHNLLKAHALAWHVYNEKFRHAQNGKISIALQADWIEPACPFSQKDKEVAERVLEFDIGWLAEPIFGSGDYPWVMRDWLNQRNNFLLPYFTEDEKKLIQGTFDFLALSHYTTILVDSEKEDPIKYNDYLEVQEMTDITWLNSPSQVAVVPWGLRKVLNWLKFKYGDLPMYIISNGIDDGLHAEDDQLRVYYMQNYINEALKAHILDGINLCGYFAYSFNDRTAPRFGLYRYAADQFEPKASMKHYRKIIDSNGFPGPETLERFCPEEFTVCTECSFFHTRKS
modifications: extracellular domain
notes: Soluble human Klotho protein (hKL) obtained from R&D Systems

Legend:
Panc1 cells [1] = test: MTT proliferation assay, soluble klotho protein and 5-FU; conditions: 5-FU 500 μM alone; 48 hr
Procedure: 3000 cells/well were plated in 96-well plates, cultured in the appropriate culture media, and treated for 48 hrs as indicated.
Medium alone served as control. 48 hr after incubation, cells were cultured for 2 hr with 500 μg/ml MTT reagent, the medium was aspirated, and the cells were dissolved in dimethyl sulfoxide (DMSO). Absorbance of the formazan product was measured by an enzyme-linked immunosorbent assay reader to provide a measure of viability.

AKT in MCF-7 cells = test: AKT phosphorylation after IGF-1 stimulation in klotho-silenced MCF-7 cells; format: cell-based, human; conditions: compared to siRNAc transfected cells
Text: (§1) Klotho protein directed stealth siRNA duplex oligoribonucleotides and control siRNAs were both designed and purchased from Invitrogen. Lipofectamine 2000 (Invitrogen), and was used to transfect the cells with 100 pmoles of siRNA.
The effect of silencing of klotho protein in MCF-7 cells, using siRNA3, was also studied.

klotho protein mRNA = test: Silencing of klotho protein expression by siRNA in MCF-7 cells (mRNA levels); format: cell-based, human; conditions: MCF-7 cells transfected with siRNA
Text: as §1
For breast cell studies, total RNA was extracted using the RNA isolation kit (Sigma) and processed to cDNA with RevertAid (Fermentas, Vilnius, Lithuania). Primers were designed using Primer Express (Applied Biosystems, Foster City, Calif.) and synthesized by IDT (Coralville, Iowa). […].
(§2) Three klotho protein-directed siRNAs were designed and tested for their ability to silence klotho protein expression in MCF-7 cells, compared to a control siRNA (siRNAc).

MCF-7 cells = test: MTT proliferation assay after klotho protein down-regulation by siRNA; format: cell-based, human; conditions: 48 h; compared to siRNAc; p<0.05
Procedure: as §1
The medium was aspirated, and the cells were dissolved by dimethyl sulfoxide (DMSO).
as §2

[2] = tested on: IGF-1 pathway in Panc1 cells; test: IGF-1 pathway in Panc1 cells treated with soluble klotho protein (immunoblot); format: cell-based, human; conditions: klotho 10 min, then IGF-1 12.5 nM, 15 min
Procedure: For pancreatic cells, protein extraction and Western blotting was performed as described (Wolf et al., 2008).
Since klotho protein is shed and may act as a circulating hormone, the ability of soluble klotho protein to inhibit activation of the IGF-1 pathway in Panc1 cells was tested. V5-tagged soluble klotho protein was generated as described [Kurosu H. et al., 2005]. Panc1 cells were treated with klotho protein for 10 min and stimulated with IGF-1 (12.5 nM, 15 min), and expression and phosphorylation of the IGF-1R, AKT and ERK1/2 was determined.

IGF-1R in MCF-7 cells = test: IGF-1R phosphorylation in MCF-7 cells treated with soluble klotho protein; format: cell-based, human; conditions: klotho 15 min, then IGF-1 12.5 nM
Text: Soluble klotho protein was generated essentially as described (Kurosu et al., 2005). In brief, insect cells, which stably express V5-tagged soluble klotho protein, were generated using the Drosophila Expression System (Invitrogen). A cDNA fragment encoding the entire extracellular domain of mouse Klotho protein (amino acid residues 31 to 982 of SEQ ID NO: 3) was inserted into a pMT/BiP/V5-His expression vector, allowing inducible expression from metallothionein promoter and secretion of the recombinant protein with V5 and 6×His tags at the C-terminus into conditioned medium. The expression vector was transfected into Drosophila Schneider cells by the calcium phosphate method together with pCoHYGRO selection vector. […]
As klotho protein may also be shed and act as a circulating hormone (Kuro-o et al., 1997; Matsumura et al., 1998), the ability of soluble klotho protein to inhibit activation of the IGF-1 pathway in MCF-7 cells was tested. V5-tagged soluble klotho protein was generated as described under “Materials and Methods”, its expression and purity were examined using Coomassie staining and its concentration was determined (data not shown). MCF-7 cells were treated with klotho protein for 15 min and, stimulated with IGF-1 (12.5 nM, 15 min), and expression and phosphorylation of the IGF-1R was determined.

[3] = Blood counts and chemistry of treated mice; format: in vivo; conditions: for glucose levels: after fasting, MiaPaCa2 xenograft experiment; for blood counts or liver function tests: data not shown; for hypophosphatemia in treated mice: mouse, in vivo
Procedure: The effects of sol-hKL and sol-hKL1 on blood counts and chemistry were also studied. For these studies, blood was withdrawn from control, sol-hKL-treated (2.5 μg/kg) or sol-hKL1-treated (10 μg/kg) mice, at the same day as sacrificing and tumor harvesting, following five weeks of treatment.

MiaPaCa2 cells = test: In vivo MiaPaCa2 tumors in athymic mice treated with sol-hKL or sol-hKL1; conditions: sol-hKL 2.5 μg/kg, sol-hKL1 10 μg/kg; for tumors completely regressed (number) / tumors completely regressed (percent): after four weeks
Procedure: A similar experiment, with minor differences, was also performed using MiaPaCa2 cells (FIGS. 17H, 17I). Cells were injected into both flanks of athymic mice and mice were treated with either a control vehicle (N=8), sol-hKL (2.5 μg/kg, N=8) or sol-hKL1 (10 μg/kg, N=8).

Panc1 cells [4] = test: MTT viability assay, sol-hKL or sol-hKL1; format: cell-based, human; conditions: 48 hrs
Procedure: The activity of hKL1 was also tested. Panc1 cells were treated with either sol-hKL or sol-hKL1 for 48 hrs and viability was assessed after 48 hours by MTT assay (FIG. 17B).

Panc1 cells [5] = test: In vivo Panc1 tumors in athymic mice treated with sol-hKL or sol-hKL1; conditions: i.p. five days a week for five weeks; for tumor growth (tumor volume and weight): sol-hKL 2.5 μg/kg, sol-hKL1 10 or 25 μg/kg, p<0.05
Procedure: The in vivo growth inhibitory activity of sol-hKL1, compared to sol-hKL, on pancreatic cancer cells was examined (FIG. 17C-G). Panc1 cells were injected into one flank of athymic mice and mice were treated with intraperitoneal injections of either control vehicle (N=12), sol-hKL (2.5 μg/kg, N=7), or sol-hKL1 (10 μg/kg, N=6; 25 μg/kg, N=7), five days a week for five weeks. Weight of mice (FIG. 17C) and tumor volume (FIG. 17D) in control and treated groups were monitored weekly and tumor weight was measured on day of sacrifice (FIG. 17E).

[6] = five weeks of treatment, sol-hKL 2.5 μg/kg, sol-hKL1 10 μg/kg

Molecule	glucose levels [3]	blood counts or liver function tests [3, 6]	hypophosphatemia in treated mice [3]	tumors completely regressed (number) (MiaPaCa2 cells)	tumors completely regressed (percent) (MiaPaCa2 cells)	changes in weight or general health of mice (Panc1 cells [5])	tumor growth (tumor volume and weight) (Panc1 cells [5])	also measured
O=c1[nH]cc(F)c(=O)[nH]1 [5-FLU, 5-Fluorouracil]	–	–	–	–	–	–	–	reduction in viability (Panc1 cells [1]): 50%
CACCAAGAGAGAUGAUGCCAAAUAU [siRNA3]	–	–	–	–	–	–	–	AKT phosphorylation following IGF-1 stimulation (AKT in MCF-7 cells): increased; reduction of klotho protein expression (mRNA levels) (klotho protein mRNA): 88%; increase of proliferation of MCF-7 cells (MTT assay) (MCF-7 cells): 2.5 fold
B1	–	–	–	–	–	–	–	phosphorylation of IGF-1R, AKT and ERK1/2 [2]: inhibited phosphorylation; phosphorylation of the IGF-1 receptor (IGF-1R in MCF-7 cells): inhibited
B2	did not have any significant effect	did not affect	not	four	25%	No changes	significantly inhibited tumor growth	tumor growth inhibition compared with sol-hKL (MiaPaCa2 cells): more effectively than sol-hKL; concentration for 50% viability reduction relative to sol-hKL (Panc1 cells [4]): 100 times; reduction of viability of Panc1 cells (Panc1 cells [4]; p<0.005 vs control): 50%
B3	mildly increased	did not affect	observed	two	12%	No changes	significantly inhibited tumor growth	blood urea, cholesterol and phosphate levels [3, 6]: altered
